Broadly, the Kd is a measure of binding affinity in units of concentration. Broadly, the IC50 is the concentration at which inhibition is half-maximal.

The target in one experiment is HLA-A*26:01. Put plainly: IEDB peptide-MHC binding, purified MHC/competitive/radioactivity; filed as Kd, often an IC50 or EC50 that approximates it; ≥ and ≤ were set here for values at or beyond the usual limits of such assays.
The target in the next experiment is HLA-A*29:02. The experiment is described as above.
Experiment [1] addresses HLA-A*01:01. The description is as above.
The next experiment deals with HLA-A*32:01. The description is as above.
A further experiment has as its target HLA-A*30:02. The description is as above.
In a further experiment the target is HLA-A*30:01. The experiment is described as above.
The next experiment concerns the target HLA-B*44:03. The description is as above.
A further experiment deals with HLA-B*40:01. The description is as above.
Another experiment deals with HLA-B*44:02. Described as above.
In the next experiment the target is HLA-B*07:02. In words: IEDB peptide-MHC binding, purified MHC/direct/fluorescence; filed as Kd, often an IC50 or EC50 that approximates it; ≥ and ≤ were set here for values at or beyond the usual limits of such assays. Particulars: source organism: Human immunodeficiency virus type 1 (WMJ2 ISOLATE).
Experiment [2] deals with HLA-A*01:01. The description is as above. The conditions noted are these: source organism: Human immunodeficiency virus 1.
A further experiment concerns the target HLA-A*11:01. The experiment is described as above.
The next experiment has as its target HLA-B*15:01. The experiment is described as above. Particulars: source organism: Human immunodeficiency virus 1.
For experiment [3], the target named is HLA-A*02:01. Put plainly: IEDB peptide-MHC binding, purified MHC/competitive/fluorescence; filed as Kd, often an IC50 or EC50 that approximates it; ≥ and ≤ were set here for values at or beyond the usual limits of such assays.
The next experiment concerns the target HLA-A*24:02. Put plainly: IEDB peptide-MHC binding, purified MHC/competitive/fluorescence; ≥ and ≤ were set here for values at or beyond the usual limits of such assays.
Experiment [4] concerns the target HLA-A*02:01. The description is as above.
The target of another experiment is HLA-A*02:02. Put plainly: IEDB peptide-MHC binding, purified MHC/competitive/radioactivity; filed as Kd, often an IC50 or EC50 that approximates it; ≥ and ≤ were set here for values at or beyond the usual limits of such assays. Particulars: source organism: Vaccinia virus WR.
The next experiment addresses HLA-A*02:03. The description is as above. Particulars: source organism: Vaccinia virus WR.
A further experiment has as its target HLA-A*02:06. The experiment is described as above. Particulars: source organism: Vaccinia virus WR.
Setting [5] is: source organism: Lymphocytic choriomeningitis virus (strain Armstrong).
Setting [6] is: source organism: Mammarenavirus guanaritoense.
The mark [7] stands for this setting: source organism: Dengue virus 2 Jamaica/1409/1983.
Where [8] appears, read: source organism: Dengue virus 3 Martinique/1243/1999.
Setting [9] is: source organism: Zaire ebolavirus.
[10] abbreviates: source organism: Vaccinia virus WR.
Where [11] appears, read: source organism: Dengue virus 4 Philippines/H241/1956.
The mark [12] stands for this setting: source organism: Sudan ebolavirus.

Take FTSDVKAAVI: the Kd is 6.43 µM with HLA-A*26:01 (setting [5]); not below 30.6 µM with HLA-A*29:02 (setting [5]); 0.431 µM with HLA-A*01:01 [1] (setting [5]); not below 69.9 µM in the experiment with HLA-A*32:01 (setting [5]); not below 63 µM with HLA-A*30:02 (setting [5]); 4.97 µM in the experiment with HLA-A*30:01 (setting [5]).

Consider DLMSMSDGEF, for which the dissociation constant Kd is 0.673 µM in the experiment with HLA-A*26:01 (setting [6]); 8.87 µM with HLA-A*29:02 (setting [6]); not below 41.2 µM in the experiment with HLA-A*01:01 [1] (setting [6]); not below 22.9 µM with HLA-A*32:01 (setting [6]); 1.92 µM with HLA-A*30:02 (setting [6]); not below 70.4 µM with HLA-A*30:01 (setting [6]).

Consider LETLLLLTL, for which the values for the dissociation constant (Kd) in the experiment with HLA-B*44:03 (setting [7]), with HLA-B*40:01 (setting [7]) and with HLA-B*44:02 (setting [7]) were 1.34 µM, 0.00576 µM and 0.609 µM, respectively.

In the experiment with HLA-B*07:02, IPRRIRQGL registered a dissociation constant Kd of 0.0948 µM.

In the case of TVLDVGDAY, the equilibrium dissociation constant (Kd) with HLA-A*01:01 [2] worked out at 10.2 µM; with HLA-A*11:01 (source organism: Human immunodeficiency virus 1), 0.436 µM; with HLA-B*15:01, 0.17 µM.

In the case of EELPDTIETL, the dissociation constant Kd with HLA-B*40:01 (source organism: Dengue virus 1 Brazil/97-11/1997) is 0.166 µM.

Take QVKDEKLNL: the Kd with HLA-A*02:01 [3] (source organism: Variola virus) came out at 0.324 µM.

In the case of RENLLLGVGL, the values for the dissociation constant (Kd) with HLA-B*44:03 (setting [8]), with HLA-B*40:01 (setting [8]) and with HLA-B*44:02 (setting [8]) were 0.292 µM, 0.00247 µM and 0.0214 µM, respectively.

The sequence EDPSSGYYS came in with a half-inhibitory concentration (IC50) with HLA-A*24:02 (setting [9]) not below 185 µM.

With DLMGVPYCNY, the dissociation constant (Kd) in the experiment with HLA-A*26:01 (setting [5]) is 0.163 µM; with HLA-A*29:02 (setting [5]) it was 0.147 µM; with HLA-A*01:01 [1] (setting [5]) it was 4.55 µM; with HLA-A*32:01 (setting [5]) it was not below 53 µM; with HLA-A*30:02 (setting [5]), 0.544 µM; in the experiment with HLA-A*30:01 (setting [5]), not below 68 µM.

As to LEHGLFPQL, the 50% inhibitory concentration (IC50) with HLA-A*02:01 [4] (setting [9]) was not below 73.2 µM; in the experiment with HLA-A*24:02 (setting [9]), 8.3 µM.

For GTDPYRPSF, the equilibrium dissociation constant (Kd) with HLA-A*26:01 (setting [6]) was not below 77.9 µM; with HLA-A*29:02 (setting [6]), 11 µM; with HLA-A*01:01 [1] (setting [6]), 7.15 µM; in the experiment with HLA-A*32:01 (setting [6]), 2.43 µM; in the experiment with HLA-A*30:02 (setting [6]), 5.28 µM; with HLA-A*30:01 (setting [6]) it was not below 30.3 µM.

On to DRYPANAIV, for which the Kd in the experiment with HLA-A*11:01 (source organism: SARS-CoV1) is not below 25.4 µM.

With FEIMDLEKRH, the Kd with HLA-B*40:01 (setting [7]) amounted to 0.59 µM.

Regarding KTINYSFFL, the Kd with HLA-A*32:01 (setting [10]) is not above 0.001 µM.

With ELLEPLYDV, the dissociation constant (Kd) with HLA-A*02:01 [3] (source organism: Escherichia coli) is 0.0018 µM.

In the case of LEENMEVEI, the Kd with HLA-B*40:01 (setting [11]) is 0.0826 µM.

With SKGWHDWQQV, the Kd with HLA-A*32:01 (setting [8]) turned out to be 1.4 µM.

SSKYYIKNI yielded an IC50 in the experiment with HLA-A*24:02 (source organism: Vaccinia virus) not below 1450 µM.

Turning to FVNFNSVKNL, the dissociation constant (Kd) in the experiment with HLA-A*02:01 [3] (source organism: Vaccinia virus L-IPV) stood at 0.489 µM; with HLA-A*02:02, 2.02 µM; with HLA-A*02:03, 0.318 µM; with HLA-A*02:06, 2.2 µM.

For the sequence EFSRSILWDY, the Kd in the experiment with HLA-A*26:01 (setting [6]) was 10.3 µM; with HLA-A*29:02 (setting [6]), 1.13 µM; in the experiment with HLA-A*01:01 [1] (setting [6]), 0.748 µM; in the experiment with HLA-A*32:01 (setting [6]), not below 21.5 µM; in the experiment with HLA-A*30:02 (setting [6]), 0.21 µM; with HLA-A*30:01 (setting [6]) it was 1.4 µM.

Take PNERRAWNSL: the Kd in the experiment with HLA-A*32:01 (source organism: Dengue virus 4 Dominica/814669/1981) worked out at 1.3 µM.

On to LEKAANVQW, for which the equilibrium dissociation constant (Kd) in the experiment with HLA-B*44:03 (setting [11]) was found to be 0.392 µM; in the experiment with HLA-B*44:02 (setting [11]), 0.0584 µM.

With ILYYLSAKI, in the experiment with HLA-A*32:01 (source organism: Vaccinia virus Copenhagen), the Kd was determined as 0.00887 µM.

Regarding IEETNMITL, the equilibrium dissociation constant (Kd) with HLA-B*40:01 (setting [11]) came out at 0.0119 µM.

With AGISYKDREW, the equilibrium dissociation constant (Kd) with HLA-B*44:03 (setting [11]) stood at 4.17 µM; with HLA-B*44:02 (setting [11]), 0.843 µM.

In the experiment with HLA-A*02:01 [3] (source organism: Variola virus), QLVKGFERFQ returned a Kd of 0.634 µM.

As to LYDRLASTV, the results for the IC50 with HLA-A*02:01 [4] (setting [12]) and with HLA-A*24:02 (setting [12]) were 7.48 µM and 1.32 µM, respectively.

As to LSNYIVSIF, the Kd with HLA-A*32:01 (setting [10]) worked out at 0.111 µM.

For REDQWCGSLI, the figures for the Kd with HLA-B*44:03 (setting [7]) and with HLA-B*44:02 (setting [7]) were 0.888 µM and 0.373 µM, respectively.

Source of the values: the Immune Epitope Database (IEDB).
